Experimental data from patent US20180016327A1 (Chugai, published 2018).
Where a chain is given by its changes, count along the chain named.

B1: CFP0018 18L 30F (antibody, V domains shown)
VH: QVQLVQSGAEVKKPGSSVKVSCKASGGTFSSYAISWVRQAPGQGLEWMGGIIPIFGTANYAQKFQGRVTITADESTSTAYMELSSLRSEDTAVYYCARQLYGYYELDIWGQGTLVTVSS
VL: DIQMTQSPSSLSASVGDRVTITCRASQSIFDDLAWYQQKPGKAPKLLIYEASSLQSGVPSRFSGSGSGTDFTLTISSLQPEDFATYYCQQYNSYPLTFGQGTKVEIK
B2: CFP0015 (antibody, V domains shown)
VH: QVQLLESGGGLVQPGGSLRLSCAASGFTFSSYAMSWVRQAPGKGLEWVSAISGSGGSTYYADSVKGRFTISRDNSKNTLYLQMNSLRAEDTAVYYCARGDQIWYDQWYYFDMWGQGTLVTVSS
VL: B1 VL with F30E, S53N, N92D, Y94S
notes: IgG format
B3: CFP0015 15L 30Q (antibody, V domains shown)
VH: B2 VH
VL: B1 VL with F30Q, S53N, N92D, Y94S
B4: CFP0018 18L 50D (antibody, V domains shown)
VH: B1 VH
VL: B1 VL with F30S, E50D
B5: CFP0015 15L 30H (antibody, V domains shown)
VH: B2 VH
VL: B1 VL with F30H, S53N, N92D, Y94S
B6: CFP0018 18L 96M (antibody, V domains shown)
VH: B1 VH
VL: B1 VL with F30S, L96M
B7: CFP0018 18L 94W (antibody, V domains shown)
VH: B1 VH
VL: B1 VL with F30S, Y94W
B8: CFP0018 18L 96I (antibody, V domains shown)
VH: B1 VH
VL: B1 VL with F30S, L96I
B9: CFP0018 18L 93G (antibody, V domains shown)
VH: B1 VH
VL: B1 VL with F30S, S93G
B10: CFP0018 18L 94F (antibody, V domains shown)
VH: B1 VH
VL: B1 VL with F30S, Y94F
B11: CFP0018 18L 53T (antibody, V domains shown)
VH: B1 VH
VL: B1 VL with F30S, S53T
B12: CFP0018 18L 96W (antibody, V domains shown)
VH: B1 VH
VL: B1 VL with F30S, L96W
B13: CFP0018 18L 96H (antibody, V domains shown)
VH: B1 VH
VL: B1 VL with F30S, L96H
B14: CFP0015 15L 30S (antibody, V domains shown)
VH: B2 VH
VL: B1 VL with F30S, S53N, N92D, Y94S
B15: CFP0018 18L 96P (antibody, V domains shown)
VH: B1 VH
VL: B1 VL with F30S, L96P
B16: CFP0015 15L 30A (antibody, V domains shown)
VH: B2 VH
VL: B1 VL with F30A, S53N, N92D, Y94S
B17: CFP0018 18L 93D (antibody, V domains shown)
VH: B1 VH
VL: B1 VL with F30S, S93D
B18: CFP0018 18L 32Q (antibody, V domains shown)
VH: B1 VH
VL: B1 VL with F30S, D32Q
B19: CFP0018 18L 30Y (antibody, V domains shown)
VH: B1 VH
VL: B1 VL with F30Y
B20: CFP0018 18L 31N (antibody, V domains shown)
VH: B1 VH
VL: B1 VL with F30S, D31N
B21: CFP0018 18L 92Q (antibody, V domains shown)
VH: B1 VH
VL: B1 VL with F30S, N92Q
B22: CFP0018 18L 30H (antibody, V domains shown)
VH: B1 VH
VL: B1 VL with F30H
B23: CFP0018 18L 30N (antibody, V domains shown)
VH: B1 VH
VL: B1 VL with F30N
B24: CFP0015 15L 30P (antibody, V domains shown)
VH: B2 VH
VL: B1 VL with F30P, S53N, N92D, Y94S
B25: CFP0018 18L 93N (antibody, V domains shown)
VH: B1 VH
VL: B1 VL with F30S, S93N
B26: CFP0018 18L 92E (antibody, V domains shown)
VH: B1 VH
VL: B1 VL with F30S, N92E
B27: CFP0018 18L 30Q (antibody, V domains shown)
VH: B1 VH
VL: B1 VL with F30Q
B28: CFP0018 18L 30P (antibody, V domains shown)
VH: B1 VH
VL: B1 VL with F30P
B29: CFP0018 18L 92P (antibody, V domains shown)
VH: B1 VH
VL: B1 VL with F30S, N92P
B30: CFP0015 15L 30N (antibody, V domains shown)
VH: B2 VH
VL: B1 VL with F30N, S53N, N92D, Y94S
B31: CFP0018 18L 94H (antibody, V domains shown)
VH: B1 VH
VL: B1 VL with F30S, Y94H
B32: CFP0018 18L 96V (antibody, V domains shown)
VH: B1 VH
VL: B1 VL with F30S, L96V
B33: CFP0015 15L 30D (antibody, V domains shown)
VH: B2 VH
VL: B1 VL with F30D, S53N, N92D, Y94S
B34: CFP0018 18L 96F (antibody, V domains shown)
VH: B1 VH
VL: B1 VL with F30S, L96F
B35: CFP0018 18L 32N (antibody, V domains shown)
VH: B1 VH
VL: B1 VL with F30S, D32N
B36: CFP0018 18L 92S (antibody, V domains shown)
VH: B1 VH
VL: B1 VL with F30S, N92S
B37: CFP0018 18L 30T (antibody, V domains shown)
VH: B1 VH
VL: B1 VL with F30T
B38: CFP0015 15L 30T (antibody, V domains shown)
VH: B2 VH
VL: B1 VL with F30T, S53N, N92D, Y94S
B39: CFP0018 18L 96Y (antibody, V domains shown)
VH: B1 VH
VL: B1 VL with F30S, L96Y
B40: CFP0018 18L 92D (antibody, V domains shown)
VH: B1 VH
VL: B1 VL with F30S, N92D
B41: CFP0018 18L 92T (antibody, V domains shown)
VH: B1 VH
VL: B1 VL with F30S, N92T
B42: CFP0018 18L 93R (antibody, V domains shown)
VH: B1 VH
VL: B1 VL with F30S, S93R
B43: CFP0015 15L 30F (antibody, V domains shown)
VH: B2 VH
VL: B1 VL with S53N, N92D, Y94S
B44: CFP0018 18L 53H (antibody, V domains shown)
VH: B1 VH
VL: B1 VL with F30S, S53H
B45: CFP0018 18L 53N (antibody, V domains shown)
VH: B1 VH
VL: B1 VL with F30S, S53N

Each binder was assayed against T1, human C5 (human, UniProt P01031 19-673; P01031 678-1676, Beta and alpha chains are disulfide-linked and the protein is glycosylated.) (assay: Biacore, captured antibody, pH 7.4, 37 C;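 further: biacore binding response of anti-C5 antibody light chain variants captured on chip with human C5 injected, ACES running buffer containing 1.2 mM CaCl₂, parent light chain antibody set to 100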).
T1 construct: Either in-house recombinant C5 or plasma derived C5 (CALBIOCHEM) was used; also called recombinant human C5; plasma derived human C5
With B1 the “% binding (parent = 100)” value was 85.2%.
In the case of B2, the “% binding (parent = 100)” value is reported as 100%.
With B3 the “% binding (parent = 100)” value was 42.6%.
In the case of B4, the “% binding (parent = 100)” value is reported as 22.2%.
For B5, the “% binding (parent = 100)” value was 18.4%.
For B6, the “% binding (parent = 100)” value was 46.2%.
B7 was tested, and the “% binding (parent = 100)” value was 33.7%.
With B8 the “% binding (parent = 100)” value was 56%.
With B9 the “% binding (parent = 100)” value was 79.1%.
In the case of B10, the “% binding (parent = 100)” value is reported as 28.6%.
For B11, the “% binding (parent = 100)” value was 44.5%.
B12 was tested, and the “% binding (parent = 100)” value was 16.9%.
With B13 the “% binding (parent = 100)” value was 114%.
In the case of B14, the “% binding (parent = 100)” value is reported as 23.1%.
B15 was tested, and the “% binding (parent = 100)” value was 18%.
With B16 the “% binding (parent = 100)” value was 25.7%.
With B17 the “% binding (parent = 100)” value was 23.8%.
With B18 the “% binding (parent = 100)” value was 21.9%.
For B19, the “% binding (parent = 100)” value was 82.4%.
With B20 the “% binding (parent = 100)” value was 130%.
B21 was tested, and the “% binding (parent = 100)” value was 125%.
With B22 the “% binding (parent = 100)” value was 87.2%.
B23 was tested, and the “% binding (parent = 100)” value was 201%.
For B24, the “% binding (parent = 100)” value was 60.9%.
For B25, the “% binding (parent = 100)” value was 107%.
B26 was tested, and the “% binding (parent = 100)” value was 40.9%.
For B27, the “% binding (parent = 100)” value was 130%.
B28 was tested, and the “% binding (parent = 100)” value was 111%.
For B29, the “% binding (parent = 100)” value was 64.5%.
With B30 the “% binding (parent = 100)” value was 21.4%.
B31 was tested, and the “% binding (parent = 100)” value was 17.6%.
In the case of B32, the “% binding (parent = 100)” value is reported as 70.3%.
For B33, the “% binding (parent = 100)” value was 59.9%.
B34 was tested, and the “% binding (parent = 100)” value was 31.8%.
In the case of B35, the “% binding (parent = 100)” value is reported as 527%.
For B36, the “% binding (parent = 100)” value was 104%.
B37 was tested, and the “% binding (parent = 100)” value was 90.7%.
B38 was tested, and the “% binding (parent = 100)” value was 25.1%.
With B39 the “% binding (parent = 100)” value was 23%.
With B40 the “% binding (parent = 100)” value was 31.7%.
For B41, the “% binding (parent = 100)” value was 95.1%.
With B42 the “% binding (parent = 100)” value was 136%.
For B43, the “% binding (parent = 100)” value was 39.7%.
B44 was tested, and the “% binding (parent = 100)” value was 94.4%.
With B45 the “% binding (parent = 100)” value was 91.2%.
